Measured values taken from article PMC11982570 (Scientific Reports, 2025).

Molecular target: Biotinylated BTN3A1 ectodomain + avitag (Homo sapiens, UniProt O00481, biotin on the C-terminal BirA biotinylation sequence)
Assay: BLI

Sequence of Biotinylated BTN3A1 ectodomain + avitag (O00481 whole entry, looked up, the tested form may be a part): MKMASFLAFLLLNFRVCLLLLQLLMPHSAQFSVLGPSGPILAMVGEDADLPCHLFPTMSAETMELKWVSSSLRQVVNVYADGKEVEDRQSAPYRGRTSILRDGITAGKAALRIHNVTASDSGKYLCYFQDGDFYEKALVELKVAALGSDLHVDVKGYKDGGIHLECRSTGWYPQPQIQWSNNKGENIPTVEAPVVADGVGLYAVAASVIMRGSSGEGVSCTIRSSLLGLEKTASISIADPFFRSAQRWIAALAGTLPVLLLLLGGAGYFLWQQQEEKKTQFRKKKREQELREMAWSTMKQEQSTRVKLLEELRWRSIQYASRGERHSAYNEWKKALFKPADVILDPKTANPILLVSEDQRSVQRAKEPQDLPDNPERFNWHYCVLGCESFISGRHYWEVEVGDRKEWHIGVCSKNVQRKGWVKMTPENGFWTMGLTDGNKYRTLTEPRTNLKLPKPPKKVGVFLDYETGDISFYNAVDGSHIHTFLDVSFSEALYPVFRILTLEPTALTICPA

B1: 103.2 mAb (antibody, V domains shown)
VH: QVQLQQSGAEVVRPGTSVKVSCKASGYAFTSYLIHWIKQRPGQGLEWIGVINPRSGDSHYNEKFKDRTTLTADQSSSTAYMQLSSLTSDDSAVYFCARSDYGAYWGQGTLVTVSA
VL: DIVLTQSPVTLSVTPGDSVSLSCRASQSISNNLHWYRQKSHESPRLLIKYASQSIFGIPSRFSGSGSGTEFTLSINSVETEDFGIYFCQQSNSWPHTFGTGTKLELK
  binding result: binds

B2: 103.2^10 mAb hinge variant (antibody, V domains shown)
VH: QVQLQQSGAEVVRPGTSVKVSCKASGYAFTSYLIHWIKQRPGQGLEWIGVINPRSGDSHYNEKFKDRTTLTADQSSSTAYMQLSSLTSDDSAVYFCARSDYGAYWGQGTLVTVSA
VL: DIVLTQSPVTLSVTPGDSVSLSCRASQSISNNLHWYRQKSHESPRLLIKYASQSIFGIPSRFSGSGSGTEFTLSINSVETEDFGIYFCQQSNSWPHTFGTGTKLELK
  binding result: binds

B3: 103.2^30 mAb hinge variant (antibody, V domains shown)
VH: QVQLQQSGAEVVRPGTSVKVSCKASGYAFTSYLIHWIKQRPGQGLEWIGVINPRSGDSHYNEKFKDRTTLTADQSSSTAYMQLSSLTSDDSAVYFCARSDYGAYWGQGTLVTVSA
VL: DIVLTQSPVTLSVTPGDSVSLSCRASQSISNNLHWYRQKSHESPRLLIKYASQSIFGIPSRFSGSGSGTEFTLSINSVETEDFGIYFCQQSNSWPHTFGTGTKLELK
  binding result: binds

B4: 103.2^5 mAb hinge variant (antibody, V domains shown)
VH: QVQLQQSGAEVVRPGTSVKVSCKASGYAFTSYLIHWIKQRPGQGLEWIGVINPRSGDSHYNEKFKDRTTLTADQSSSTAYMQLSSLTSDDSAVYFCARSDYGAYWGQGTLVTVSA
VL: DIVLTQSPVTLSVTPGDSVSLSCRASQSISNNLHWYRQKSHESPRLLIKYASQSIFGIPSRFSGSGSGTEFTLSINSVETEDFGIYFCQQSNSWPHTFGTGTKLELK
  binding result: binds

B5: 103.2^15 mAb hinge variant (antibody, V domains shown)
VH: QVQLQQSGAEVVRPGTSVKVSCKASGYAFTSYLIHWIKQRPGQGLEWIGVINPRSGDSHYNEKFKDRTTLTADQSSSTAYMQLSSLTSDDSAVYFCARSDYGAYWGQGTLVTVSA
VL: DIVLTQSPVTLSVTPGDSVSLSCRASQSISNNLHWYRQKSHESPRLLIKYASQSIFGIPSRFSGSGSGTEFTLSINSVETEDFGIYFCQQSNSWPHTFGTGTKLELK
  binding result: binds
